Measured values as given in the supplement of paper PMC9732359.
± gives the uncertainty stated by the source.

Assay: protein stability index of a GFP-peptide fusion (yeast GPS) (PSI 1-4); higher = more stable; sorted into four equal gates, so the index is relative within each strain
Procedure, shortened: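 Peptides tiling yeast proteins in 17-residue segments were fused downstream of GFP, with Cherry expressed from the same plasmid. As a pooled library in yeast, mid-log cultures grown in leucine-free medium were sorted into four equal gates by GFP/Cherry fluorescence ratio. Gate plasmids were PCR-amplified and Illumina-sequenced, and barcodes linked reads to strains. Each peptide received a protein stability index equal to the sum of each gate's read frequency times its gate number.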

Row | Sequence | protein stability index (doa10∆) | protein stability index (pdr5∆) | protein stability index (san1∆) | protein stability index (ubr1∆)
1 | LTSQAPQTTQMFQSQSQ [YDL088C/ASM4] | 3.12 ± 0.11 | 3.16 ± 0.071 | 3.08 ± 0.046 | 3.06 ± 0.057
2 | VLFITPDIVGHEFTLSF [BRR2] | 1.87 ± 0.049 | 2.29 ± 0.049 | 2.18 ± 0.055 | 2.3 ± 0.04
3 | LEPGCSVLLHHKTMSIV [RPT2] | 1.39 ± 0.067 | 1.58 ± 0.049 | 1.38 ± 0.087 | 1.61 ± 0.04
4 | HLDNSKSVFSSAGLDSA [RPN1] | 2.58 ± 0.064 | 2.69 ± 0.043 | 2.25 ± 0.063 | 2.15 ± 0.055
5 | AFGEFSLEGCVEMAWIM [FAS2] | 2.46 ± 0.1 | 2.63 ± 0.12 | 2.48 ± 0.079 | 2.37 ± 0.088
6 | KIALMNIPKPLNSYHIK [RGR1] | 1.65 ± 0.033 | 1.81 ± 0.028 | 1.69 ± 0.041 | 1.83 ± 0.022
7 | ELNEEKKRLMDIDDELN [SMC2] | 3.23 ± 0.095 | 3.42 ± 0.14 | 2.69 ± 0.15 | 3.51 ± 0.069
8 | KVEIPLPNEAGRLEIFK [RPT4] |  | 3.09 ± 0.17 | 2.52 ± 0.18 | 2.74 ± 0.21
9 | YLTGGQQPTASDNIASL [SMD1] | 3 ± 0.21 | 2.57 ± 0.18 | 3.04 ± 0.099 | 2.61 ± 0.18
10 | KRLGPKRANNIRKFFGL [RPS6A] | 3.52 ± 0.077 | 3.56 ± 0.071 | 3.25 ± 0.038 | 3.46 ± 0.045
11 | NSIDVPIRINSTEEIEY [YMR129W/POM152] | 1.76 ± 0.055 | 2.27 ± 0.058 | 2.01 ± 0.071 | 2.6 ± 0.034
12 | MSAKAQNPMRDLKIEKL [RPL11A] | 3.39 ± 0.16 | 3.26 ± 0.11 | 3.46 ± 0.11 | 3.61 ± 0.24
13 | FVIPALPAAVSKSLQES [RPC82] | 1.8 ± 0.1 | 1.69 ± 0.14 | 2.58 ± 0.085 | 2.04 ± 0.12
14 | RNKRAVQLPILKIIYTG [YJL039C/NUP192] | 1.6 ± 0.056 | 1.87 ± 0.048 | 1.97 ± 0.069 | 2.02 ± 0.067
15 | MTLEDNNVTSNPSEFTP [SSN2] | 2.75 ± 0.069 | 3.03 ± 0.067 | 2.92 ± 0.068 | 3.16 ± 0.064
16 | TIITDCAFLLTKIKDAE [YJL039C/NUP192] | 2.52 ± 0.071 | 2.78 ± 0.077 | 2.06 ± 0.13 | 2.52 ± 0.07
17 | ELAAKEEPAKEEAPAPT [FAS2] | 3.08 ± 0.2 | 3.24 ± 0.14 |  | 
18 | KLLKQPKFDVGALMALH [RPS1A] | 1.9 ± 0.056 | 2.16 ± 0.083 | 1.9 ± 0.084 | 1.9 ± 0.069
19 | LEQKIHEVEEILNELQP [SMC1] | 3.04 ± 0.15 | 2.73 ± 0.22 | 2.99 ± 0.17 | 3.14 ± 0.2
20 | WLVVPTIYNLQHHVTDA [YML031W/NDC1] | 1.38 ± 0.03 | 1.62 ± 0.033 | 1.46 ± 0.05 | 1.37 ± 0.027
21 | DNDGFSFLMRQFTRFFL [ECM29] | 1.63 ± 0.047 | 2.19 ± 0.059 | 1.87 ± 0.075 | 2.43 ± 0.047
22 | KEQENITIQDLLFPKST [DPB4] | 3.05 ± 0.1 | 2.64 ± 0.13 | 2.52 ± 0.087 | 2.75 ± 0.086
23 | TLNSRALSGLYYKNFHN [SNM1] | 2.17 ± 0.052 | 2.38 ± 0.06 | 1.88 ± 0.063 | 2 ± 0.042
24 | LLSDTFEVLAPKWERVF [RRI2] | 3.13 ± 0.11 | 2.48 ± 0.076 | 1.75 ± 0.091 | 2.93 ± 0.11
25 | ELPLLSPERFATLGIDP [RPT1] | 2.41 ± 0.13 | 2.75 ± 0.18 | 3.27 ± 0.16 | 2.52 ± 0.19
26 | KANIFQVIKNEVCAKMP [SSN2] | 2.7 ± 0.14 | 2.27 ± 0.084 | 1.4 ± 0.21 | 1.84 ± 0.09
27 | TIFGGVDKNGAHLYMLE [PRE10] | 2.88 ± 0.076 | 2.66 ± 0.071 | 2.87 ± 0.086 | 3.29 ± 0.075

Row | Sequence | protein stability index (doa10∆) | protein stability index (pdr5∆) | protein stability index (san1∆) | protein stability index (ubr1∆)
28 | LTNEDPPGLMYLKAFDK [SSN2] |  | 2.61 ± 0.26 |  | 3.22 ± 0.13
29 | SEISDGKLKRCSRCGSV [SIN4] | 3.33 ± 0.17 | 3.4 ± 0.14 | 3.36 ± 0.11 | 3.59 ± 0.11
30 | DPKFRRNHKHALHGTAK [RPL29] | 2.34 ± 0.025 | 2.602 ± 0.022 | 2.478 ± 0.024 | 2.636 ± 0.019
31 | KCSTRGLSTDHTTQIVN [YML103C/NUP188] | 2.9 ± 0.079 | 2.9 ± 0.085 | 2.79 ± 0.07 | 3.01 ± 0.054
32 | VASSTNFTSPTAVVNNA [SWI1] | 2.64 ± 0.094 | 2.56 ± 0.12 | 2.48 ± 0.14 | 2.91 ± 0.069
33 | ITVVLGVNGYIWLRKTS [RRP4] | 1.61 ± 0.2 | 1.62 ± 0.12 | 1.34 ± 0.26 | 1.95 ± 0.11
34 | DMDAESNESQNGKDSEI [SMC3] | 3.42 ± 0.12 | 3.22 ± 0.096 | 2.89 ± 0.1 | 3.31 ± 0.038
35 | RELREVIELPLKNPEIF [RPT4] | 2.71 ± 0.14 | 3.73 ± 0.27 | 3.08 ± 0.18 | 3.06 ± 0.088
36 | ALAFGYVKSLHKQISAE [SIN4] | 1.65 ± 0.056 | 2.21 ± 0.064 | 1.78 ± 0.11 | 2.32 ± 0.043
37 | SDLNLTDRQKKLLGVDM [YLR018C/POM34] | 3.17 ± 0.052 | 3.09 ± 0.055 | 3.19 ± 0.039 | 3.23 ± 0.039
38 | YLSGAIPNQEVLQYSDW [YDL116W/NUP84] | 2.37 ± 0.12 | 1.83 ± 0.074 | 2.29 ± 0.051 | 2 ± 0.071
39 | ILQILDQDELVQPPLDK [SWP82] | 2.58 ± 0.068 | 2.68 ± 0.11 | 2.62 ± 0.074 | 2.48 ± 0.11
40 | NFKMLVLLATWNLEKWR [IRR1] | 1.32 ± 0.053 | 1.3 ± 0.071 | 1.5 ± 0.12 | 1.56 ± 0.038
41 | STSVGWKYEDVVAKLED [RPL16B] | 3.31 ± 0.073 | 2.28 ± 0.094 | 2.48 ± 0.11 | 3.33 ± 0.075
42 | VDQNPLTMHKIIQLILW [SRB8] | 1.47 ± 0.085 | 1.6 ± 0.086 | 1.23 ± 0.17 | 1.36 ± 0.081
43 | YTPEESAWIWPMDEETK [RPC25] | 2.34 ± 0.068 | 2.62 ± 0.074 | 2.54 ± 0.086 | 2.65 ± 0.098
44 | ATKAINGCIFTLNPKTG [PRP8] | 2.79 ± 0.095 | 2.73 ± 0.076 | 2.71 ± 0.059 | 2.88 ± 0.062
45 | IFVSILSDRANKNQDAF [ARP9] | 2.85 ± 0.057 | 2.39 ± 0.058 | 2.53 ± 0.066 | 2.87 ± 0.056
46 | DNVIVINHKINNKITQL [SIR3] | 2.08 ± 0.057 | 2.13 ± 0.05 | 2.08 ± 0.053 | 2.2 ± 0.04
47 | WVAPQESSHEQEEFVQF [ECM29] | 3.26 ± 0.15 | 3.42 ± 0.13 |  | 
48 | SNTDETKGENYQLVKTL [FAS2] | 2.94 ± 0.081 | 3.06 ± 0.081 | 2.81 ± 0.076 | 3.25 ± 0.084
49 | ADYWTHAYRDVLAQYHE [SNF6] | 3.02 ± 0.071 | 3.23 ± 0.08 | 3.06 ± 0.058 | 2.81 ± 0.049
50 | KVDGKVRTDTTYPAGFM [RPS4A] | 3.41 ± 0.13 | 3.18 ± 0.13 | 2.97 ± 0.073 | 3.15 ± 0.11
51 | QVRRDIPSAAFNFFEPI [YMR129W/POM152] | 1.9 ± 0.036 | 2.23 ± 0.041 | 1.96 ± 0.049 | 2.15 ± 0.031
52 | LPGELAKHAVSEGTRAV [HTB1] | 3.22 ± 0.11 | 3.46 ± 0.12 | 3.42 ± 0.071 | 3.31 ± 0.088
53 | YPVHEAHKGQIVLIKGI [SNU114] | 1.52 ± 0.095 | 2.45 ± 0.088 | 1.37 ± 0.15 | 2.87 ± 0.088
